According to patent publication US20210032312A1 (Janssen / Centocor, published 2021):

Columns and labels:
[1] = target: T1, human CD8 alpha (CD8A) on primary human CD8+ T cells (human, UniProt P01732 22-235); assay: flow cytometry, human CD8+ T cells
T1 construct: whole, on cells; also called hCD8A
Method: (§1) Binding of the 190 ELISA hits to human and cynomologous monkey primary CD8 T cells was assessed by flow cytometry. The FN3 domain molecules were diluted to 2 μM and 0.2 μM in PBS and incubated with human or cynomologous monkey CD8+ T cells in 96-well format. After 1 hour at 4 C, the cells were washed once with PBS and then resuspended with an anti-FN3 domain antibody (PAB25) solution. Following this incubation, the cells were washed twice with PBS and a PE conjugated secondary antibody and a viability dye were added. Finally, cells were washed and resuspended in PBS for flow cytometric analysis using a BD Canto Instrument. Cells were gating on live cells and median fluorescence intensity of the bound Centyrins (PE channel) was calculated using Cytobank software.

[2] = target: T2, cynomolgus monkey CD8 alpha on primary cynomolgus CD8+ T cells (cynomolgus monkey, UniProt P01732 23-235 (human entry)); assay: flow cytometry, cyno CD8+ T cells
T2 construct: also called Cyno CD8alpha; cyno CD8A
T2 sequence (P01732 other isoform, or with tags, fused parts or gaps limits assumed): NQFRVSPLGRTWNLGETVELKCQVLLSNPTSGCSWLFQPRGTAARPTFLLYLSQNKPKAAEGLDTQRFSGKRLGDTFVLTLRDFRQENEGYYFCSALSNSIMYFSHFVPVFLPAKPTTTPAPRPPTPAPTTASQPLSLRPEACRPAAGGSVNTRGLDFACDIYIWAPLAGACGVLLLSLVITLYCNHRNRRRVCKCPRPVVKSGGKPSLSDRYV
Method: as §1

human CD8A-Fc (in house) = target: T3, human CD8A-Fc (in house) (human, UniProt P01732 22-182, limits assumed); assay: SPR (ProteOn), captured hCD8A-Fc
T3 construct: captured by goat anti-human Fc on the ProteOn chip; also called hCD8A-Fc; recombinant human CD8 alpha; not shown: linker/tag and Fc of human IgG1
T3 sequence (P01732 22-182 limits assumed): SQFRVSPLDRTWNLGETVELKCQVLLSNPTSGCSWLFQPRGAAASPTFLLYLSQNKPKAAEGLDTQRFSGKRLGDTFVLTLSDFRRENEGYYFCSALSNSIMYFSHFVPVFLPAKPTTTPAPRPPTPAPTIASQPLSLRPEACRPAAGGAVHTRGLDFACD

T1 sequence (P01732 22-235): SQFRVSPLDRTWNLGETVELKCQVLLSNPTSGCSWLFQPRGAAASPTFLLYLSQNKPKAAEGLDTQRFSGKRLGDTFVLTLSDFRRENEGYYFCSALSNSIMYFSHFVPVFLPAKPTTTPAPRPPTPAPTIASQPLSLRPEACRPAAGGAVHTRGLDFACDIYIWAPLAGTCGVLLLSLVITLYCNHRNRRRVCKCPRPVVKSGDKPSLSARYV

| Binder | Human T-cell Binding 0.2 uM (MFI) [1] | Human T-cell Binding 2 uM (MFI) [1] | Cyno T-cell Binding 0.2 uM (MFI) [2] | Cyno T-cell Binding 2 uM (MFI) [2] | koff (human CD8A-Fc (in house)) |
| --- | --- | --- | --- | --- | --- |
| P283DR9P1364_D8 (designed binder, FN3 domain) LPAPKNLVVSRVTEDSARLSWTAPDAAFDSFQIAYPETPIQGEAIVLTVPGSERSYDLTGLKPGTEYFVIIHGVKGGITSFPLSAIFTT | 244 MFI | 656 MFI | 365 MFI | 2480 MFI | 0.00661 s⁻¹ |
| P283DR9P1364_D9 (designed binder, FN3 domain) LPAPKNLVVSRVTEDSARLSWTAPDAAFDSFGISYPEWPPLGEAIVLTVPGSERSYDLTGLKPGTEYWVIIFGVKGGERSWPLSAIFTT | 5240 MFI | 42300 MFI | 20000 MFI | 88300 MFI | 0.00043 s⁻¹ |
| P283DR9P1364_D11 (designed binder, FN3 domain) LPAPKNLVVSRVTEDSARLSWTAPDAAFDSFDIAYPEWPPKGEAIVLTVPGSERSYDLTGLKPGTEYFVVIYGVKGGIHSAPLSAIFTT | 4220 MFI | 32300 MFI | 16200 MFI | 70400 MFI | 0.000514 s⁻¹ |
| P283DR9P1364_E3 (designed binder, FN3 domain) LPAPKNLVVSRVTEDSARLSWTAPDAAFDSFGIAYPELPIGGEAIVLTVPGSERSYDLTGLKPGTEYFVIIRGVKGGTLSPPLSAIFTT | 317 MFI | 1280 MFI | 887 MFI | 9130 MFI | 0.00253 s⁻¹ |
| P283DR9P1364_E5 (designed binder, FN3 domain) LPAPKNLVVSRVTEDSARLSWTAPDAAFDSFWISYPEWPVPGEAIVLTVPGSERSYDLTGLKPGTEYWVIIQGVKGGKLSWPLSAIFTT | 1270 MFI | 17600 MFI | 5090 MFI | 55700 MFI | 0.000825 s⁻¹ |
| P283DR9P1364_E7 (designed binder, FN3 domain) LPAPKNLVVSRVTEDSARLSWTAPDAAFDSFNIAYPEWPVRGEAIVLTVPGSERSYDLTGLKPGTEYWVIIYGVKGGDRSNPLSAIFTT | 442 MFI | 5390 MFI | 2240 MFI | 28700 MFI | 0.00243 s⁻¹ |
| P283DR9P1364_E9 (designed binder, FN3 domain) LPAPKNLVVSRVTEDSARLSWTAPDAAFDSFDIAYPEWPTKGEAIVLTVPGSERSYDLTGLKPGTEYFVVINGVKGGWRSFPLSAIFTT | 548 MFI | 4300 MFI | 2100 MFI | 19700 MFI | 0.0019 s⁻¹ |
| P283DR9P1364_F2 (designed binder, FN3 domain) LPAPKNLVVSRVTEDSARLSWTAPDAAFDSFWIAYPEWPVPGEAIVLTVPGSERSYDLTGLKPGTEYFVIIQGVKGGFGSFPLSAIFTT | 6250 MFI | 39200 MFI | 16900 MFI | 91500 MFI | 0.000161 s⁻¹ |
| P283DR9P1364_G9 (designed binder, FN3 domain) LPAPKNLVVSRVTEDSARLSWTAPDAAFDSFGIWYPEWPVGGEAIVLTVPGSERSYDLTGLKPGTEYWVNISGVKGGEYSFPLSAIFTT | 401 MFI | 9890 MFI | 2800 MFI | 47100 MFI | 0.00779 s⁻¹ |
| P283DR9P1364_G10 (designed binder, FN3 domain) LPAPKNLVVSRVTEDSARLSWTAPDAAFDSFSIAYPEWPGSGEAIVLTVPGSERSYDLTGLKPGTEYFVVIFGVKGGSQSWPLSAIFTT | 409 MFI | 6290 MFI | 769 MFI | 10900 MFI | 0.00253 s⁻¹ |
| P283DR9P1364_H1 (designed binder, FN3 domain) LPAPKNLVVSRVTEDSARLSWTAPDAAFDSFQISYPEWPVHGEAIVLTVPGSERSYDLTGLKPGTEYWVIIWGVKGGRQSWPLSAIFTT | 3030 MFI | 29200 MFI | 10600 MFI | 54000 MFI | 0.000613 s⁻¹ |
